Experimental data reported in patent US20230364000A1, “COMPOSITIONS COMPRISING COMBINATIONS OF COLLAGEN OR ELASTIN POLYPEPTIDES WITH ACTIVE INGREDIENTS AND METHODS OF USING SAME” (Geltor, Inc., priority 2020, published 2023).

Tests used:
[1] = system: facial skin; test: SIAscope facial skin collagen content, clinical study of Example 5; format: in vivo, human; settings: topical facial serum 0.1%, n=15, FIG. 7
Excerpt: In a clinical study (n=15 subjects), subjects used a topical facial serum containing 0.1% of a polypeptide of SEQ ID NO: 16 for 8 weeks, after using a protein-free base facial serum for a 1-week washout period. Topical application of a polypeptide of SEQ ID NO: 16 was associated with increased skin collagen content, as measured by a SIAscope.

[2] = system: Human full-thickness skin equivalents (MatTek Epiderm FT co-culture tissue models); test: Elastin production in human full-thickness skin equivalents (ELISA); format: cell-based; settings: polypeptide 0.1% w/w, retinol (10, unit not given), ascorbic acid 2% w/w, FIG. 20
Excerpt: The combination of the truncated human type 21 collagen polypeptide with retinol increased elastin production by 45% relative to untreated control. This appeared to be a synergistic effect as treatment with truncated human type 21 collagen polypeptide alone increased elastin production by 20% and treatment with retinol alone increased elastin production by 17%. The combination of the truncated human type 21 collagen polypeptide with ascorbic acid increased elastin production by 33% relative to untreated control. This appeared to be a synergistic effect as treatment with truncated human type 21 collagen polypeptide alone increased elastin production by 20% and treatment with ascorbic acid alone increased elastin production by 5%.

[3] = system: Human full-thickness skin equivalents (MatTek Epiderm FT co-culture tissue models); test: Fibronectin production in human full-thickness skin equivalents (ELISA); format: cell-based; settings: polypeptide 0.1% w/w, FIG. 19
[4] = system: human primary keratinocytes; test: MTT viability of UVB-irradiated keratinocytes, pre- and post-irradiation treatment; format: cell-based; settings: 0.1% for 24 hours before and 24 hours after 40 mJ/cm^2 UVB; compared with UVB-irradiated keratinocytes without treatment; FIG. 5
Experimental: To further assess the effects of treatment with a polypeptide of SEQ ID NO: 16 on UVB-irradiated keratinocytes, an experiment was performed with pre- and post-irradiation treatment. Human primary keratinocytes were pre-treated with 0.1% of a polypeptide of SEQ ID NO: 16 for 24 hours, irradiated with 40 mJ/cm^2 UVB light, and then treated again with 0.1% of a polypeptide of SEQ ID NO: 16 for an additional 24 hours. Cell viability was evaluated using the MTT metabolic colorimetric assay.

[5] = Oxygen radical absorbance capacity (ORAC) assay, cell-free; format: biochemical; settings: 0.1% solution
Experimental: The antioxidant potential of a polypeptide of SEQ ID NO: 16 was assessed using the oxygen free radical absorbance capacity (ORAC) assay. The ORAC assay is a cell-free assay that uses a fluorescent readout to measure a product's antioxidant capacity. Data is reported in Trolox (Vitamin E) equivalents.
A polypeptide of SEQ ID NO: 5 was also evaluated in the ORAC assay.
An oxygen radical absorbance capacity (ORAC) assay was performed to analyze the anti-oxidative capacity of a polypeptide according to SEQ ID NO: 52. The ORAC assay is a cell-free assay that uses a fluorescent readout to measure anti-oxidative capacity. Data is reported in Trolox (Vitamin E) equivalents (TEs).

[6] = system: facial skin; test: SIAscope dermal collagen, clinical study of Example 3; format: in vivo, human; settings: 0.1% w/w topical formulation, Week 2
Experimental: A clinical study using human subjects to determine the effects of a topical skincare product containing truncated human type 21 collagen (SEQ ID NO: 16) is performed. The research is performed according to U.S. and International standards of Good Clinical Practice (FDA and ICH guidelines) and applicable government regulations.
A base formulation (control formulation) made of water, olive oil glycereth-8 esters, glycerin, coconut alkanes, hydroxyethyl acrylate/sodium acryloyldimethyl taurate copolymer, pentylene glycol, disodium EDTA, caprylyl glycol, chlorphenesin, phenoxyethanol is prepared. A formulation containing the truncated human type 21 collagen is prepared by adding sufficient collagen to prepare a topical formulation containing 0.1% w/w collagen.
The COSMETRICS™ SIAScope (Astron Clinica, Toft, UK) is a non-invasive optical skin imaging instrument using Spectrophotometric Intracutaneous Analysis (SIA), or chromophore mapping. The technique is based on a unique combination of dermatoscopy and contact remittance spectrophotometry. The hardware consists of a hand-held imaging probe attached to a laptop computer. The unit is placed in contact with the skin surface and high-intensity LED's illuminate the skin as discreet wavelengths of 400 to 1000 nm, spanning the visible spectrum and a small range of the near infrared spectrum. A digital image is captured for each wavelength. Three parametric chromophore maps are retrieved up to 2 mm in depth and 11 mm in circumference, one for each of the following parameters: epidermal melanin, dermal hemoglobin and dermal collagen.
For the purposes of this study, dermal collagen will be measured on the left or right cheek, per a prepared randomization code, at baseline and at weeks 2, 4, and 8. Assessment location will be recorded on a face map for each subject for consistency of measurements between visits.
Improvements in skin hydration, firmness, and elasticity were statistically significant.

[7] = system: human primary fibroblasts; test: Fibroblast collagen type I protein secretion (pro-collagen type I C-peptide ELISA); format: cell-based; settings: 0.03%; 48 hours; compared with untreated cells or cells treated with retinol; FIG. 1
Experimental: A series of in vitro experiments were conducted to assess the effects of a truncated human type 21 collagen on human skin fibroblasts and keratinocytes. In a first experiment, human primary fibroblasts were evaluated for collagen type I protein secretion. Fibroblasts were cultured with 0.03% of a polypeptide according to SEQ ID NO: 16 for 48 hours. Culture supernatants were analyzed by Enzyme Linked Immunosorbent Assay (ELISA) for pro-collagen type I C-peptide, which is a readout for total secreted collagen type I protein.

[8] = system: facial skin; test: Facial skin redness, clinical study of Example 5; format: in vivo, human; settings: topical facial serum 0.1%, n=15, FIG. 8
Excerpt: In a clinical study (n=15 subjects), subjects used a topical facial serum containing 0.1% of a polypeptide of SEQ ID NO: 16 for 8 weeks, after using a protein-free base facial serum for a 1-week washout period.

[9] = system: Human full-thickness skin equivalents (MatTek Epiderm FT co-culture tissue models); test: Type I collagen production in human full-thickness skin equivalents (pro-collagen type I C-peptide ELISA); format: cell-based; settings: polypeptide 0.1% w/w, FIG. 18
Experimental: Human full-thickness skin equivalents (MatTek Epiderm FT co-culture tissue models) which contain keratinocytes and fibroblasts were treated with a 0.1% w/w truncated human type 21 collagen polypeptide (having an amino acid sequence of SEQ ID NO: 16) (“C21”; FIG. […] Culture medium was changed every 2 days. On day 4, supernatant was collected and analyzed by enzyme-linked immunosorbent assay (ELISA) for pro-collagen type I C-peptide, which is a readout for total secreted collagen type I protein.

[10] = day 4 supernatant, hyaluronic acid 0.1% w/w (low molecular weight, 15-40 kDa)
[11] = each agent alone, day 4, retinol (10, unit not given), ascorbic acid 2% w/w, hyaluronic acid 0.1% w/w

B1: SEQ ID NO: 16: truncated human collagen type 21 alpha 1 without the DsbA secretion tag, recombinantly expressed in E. coli (protein)
chain: AGFPGLPGPAGEPGRHGKDGLMGSPGFKGEAGSPGAPGQDGTRGEPGIPGFPGNRGLMGQKGEIGPPGQQGKKGAPGMPGLMGSNGSPGQPGTPGSKGSKGEPGIQGMPGASGLKGEPGATGSPGEPGYMGLPGIQGKKGDKGNQGEKGIQGQKGENGRQGIPGQQGIQGHHGAKGERGEKGEPGVR
skin collagen content ([1]; 2 weeks vs baseline): increased
skin collagen content ([1]; 8 weeks vs baseline): increased
increase of elastin production relative to untreated control ([2]; day 2 supernatant): 20%
production of elastin as compared to untreated cells ([2]; each agent alone, day 2, hyaluronic acid 0.1% w/w): increased production
increase of fibronectin production relative to untreated control [3, 10]: 67%
production of fibronectin as compared to untreated cells [3, 11]: increased production
cell viability (MTT) [4]: higher cell viability
antioxidant properties, Trolox (Vitamin E) equivalents [5]: 190 μM Trolox
SIAscope Collagen Mean Percent Improvement From BL mean [6]: 6.72%
SIAscope Collagen Percent of Subjects Showing Improvement From BL [6]: 78.6%
SIAscope Collagen Mean ± SD ([6]; n 14, baseline 238.95 ± 11.60, P-value 0.004*): 254.89 ± 19.35
secreted collagen type I (pro-collagen type I C-peptide) [7]: higher levels
skin redness ([8]; 4 weeks vs baseline): decrease
skin redness ([8]; 8 weeks vs baseline): decrease
increase of type I collagen production relative to the untreated control [9, 10]: 64%
production of type I collagen as compared to untreated cells [9, 11]: increased production
